For assay [1], the system named is E. coli. Nature of the assay: Effect of induced expression of cloned SPO1 genes on growth and viability of E. coli (liquid medium and colony formation). The assay is classed as cell-based. As to conditions: cloned gene(s) expressed from IPTG-inducible promoter, * = lethality conclusion based on failure to clone, ** = data not conclusive. An excerpt: (§1) For analysis of antimicrobial activity we first cloned most of the 24 host-takeover genes (genes 37-60) singly or in multiple gene combinations into a B. subtilis/E. coli shuttle vector (pPW19) under control of an IPTG-inducible promoter (Wei and Stewart, 1993). […] These remaining genes are being cloned using expression vectors with more tightly regulated promoters, such as pJONEX4 (Sayers, 1996), pET101, or pX (Kim et al., 1996). The transformed E. coli and B. subtilis were used to determine the antimicrobial activity, if any, of the cloned genes. The effect of induction on bacterial growth and viability was measured both in liquid medium and by colony formation. Definitive establishment of lethality was shown by loss of the ability to form colonies even after removal from the inducing agent. Indication of probable lethality was based on total inability to form colonies under inducing conditions.

The subject of assay [2] is B. subtilis. Nature of the assay: Effect of induced expression of cloned SPO1 genes on growth and viability of B. subtilis (liquid medium and colony formation). As to conditions: cloned gene(s) expressed from IPTG-inducible promoter, * = lethality conclusion based on failure to clone, ** = data not conclusive. The assay is classed as cell-based.
Excerpt: as §1

The test system of assay [3] is E. coli strain DH5(pPW27). The experiment in a line: Killing of E. coli by IPTG-induced expression in liquid medium, viable cells counted by plating without inducer (FIG. 8). The format is cell-based. As to conditions: within three hours after induction at time 0 (0.2 mM IPTG), plating in the absence of inducer. The method, then:
FIG. 8. Expression of SPO1 GP44 in E. coli. Cells of E. coli strain DH5(pPW27), which expresses SPO1 gene 44 from an IPTG-inducible promoter, were transformed either with vector pACYC177 or with plasmid pPW40, in which the mutant ipoB gene had been cloned in pACYC177. Aliquots of the two cultures were induced by adding 0.2 mM IPTG at time 0, and were assayed for viable cells at various times thereafter, by plating on media lacking IPTG. Open symbols, no IPTG; Closed symbols, 0.2 mM IPTG added at time 0; Squares, mutant rpoB; and Circles, no mutant rpob. Viable cell count is expressed in cells/ml ×10^−6.
(§2) In cells growing in liquid medium, expression of the cloned gene 44 was induced at time 0. At subsequent times, the number of cells remaining viable was measured by plating in the absence of inducer. More than 99% of the cells were killed within three hours.

Assay [4] has as its system bacterial DNA, RNA, and protein synthesis. The experiment in a line: DNA, RNA and protein synthesis in uninfected bacteria expressing cloned SPO1 genes. The assay is classed as cell-based, B. subtilis or E. coli. The settings on record: expression of cloned gene(s) in uninfected cells. The method, then:
Pulse Labeling: Rates of synthesis of host and phage RNA or protein were measured in C4 medium as described previously (Wei and Stewart, 1993), by pulse-labeling for 5 minutes with [5-^3H]uridine, or [4,5-^3H]leucine, precipitating with TCA, and counting the precipitate. Since SPO1 DNA contains hmUra in place of thymine, host DNA synthesis could be measured independently by pulsing with [methyl-^3H]thymidine. Phage DNA synthesis was measured by pulsing with [2,8-^3H]adenine, and measuring alkali-stable, TCA-precipitable counts. Pulsing with [2,8-^3H]adenine measures host as well as phage DNA synthesis, but most host DNA synthesis has been shut off by the time that phage replication begins, even in mutant infections, so incorporation of label after 12 minutes is overwhelmingly into phage DNA. The time given for each pulse is the time at which the pulse began.
Adding gene 50 to the 51 clone increases its lethal efficiency, as does combining all 3 genes in a single clone. […] Mutants resistant to genes 51/50 have been isolated, but the mutant gene(s) have not yet been identified. […] The effects on DNA and protein synthesis are probably indirect effects of the inhibition of host RNA synthesis.
The simplest hypothesis as to how GP44/50/51 regulate gene expression is that they interact with the host's RNAP to change its transcriptional specificity. […]

For assay [5] the test system is unchanged. The settings on record: uninfected cells of either B. subtilis or E. coli; Wei and Stewart, 1993, 1995; cited from earlier work.
Assay [6] has as its system B. subtilis. Nature of the assay: Effect of gene expression on cell division of B. subtilis. The format is cell-based. As to conditions: expression of the gene alone in B. subtilis. An excerpt:
Genes 58-56: Expression of the whole operon is lethal to both species. […] Infection by SPO1 inhibits cell division, and a gene 56 mutation prevents that inhibition. B. subtilis mutants resistant to GP56 have been isolated, but the mutant gene(s) has not yet been identified.

In assay [7] the test system is bacteria. The experiment in a line: Toxicity or lethality of expression of cloned SPO1 genes, bacterium not given. The assay is classed as cell-based.
Excerpt: as §1, §2

The source of these data is patent US20050054571A1, “Antimicrobial proteins from the SPO1 bacteriophage” (Rice University, priority 2003, published 2005).

B1: Gene 44: product of SPO1 host-takeover gene 44, SEQ ID NO: 8 (protein)
chain: MAKSNNVYVVNGEEKVSTLAEVAKVLGVSRVSKKDVEEGKYDVVVEEAAVSLADTEEVVEEVVTEEEDILEGVEVVEDEEEEEAAEDVEEPTSEEDSEDEWEEGYPVATEVEEDEDEEIEYPEVGDFEDEKAIKKYIKGLTDEQLQAWCELEGAEWVENEHRNINRMRMAMAIKAVHFPELAKKPSSKKKSKYAEYTTEELVEMAIDNNVEVRDDKGNERILRMYTIIALREAGLIS
modifications: SPO1 Bacteriophage
As for B1, the “Lethality, E. coli” value in assay [1] (listed as 44) is reported as “Lethal”. Also, the “Lethality, B. subtilis” value in assay [2] (listed as 44) was “Lethal”. The cells killed result in assay [3] is recorded as “More than 99%”. Also, in assay [4], the “effect of expression on bacterial DNA, RNA and protein synthesis” value was “inhibiting DNA, RNA, and protein synthesis”. The “effect of expression on bacterial RNA synthesis and viability” value in assay [5] is “caused the shutoff of bacterial RNA synthesis and cell death”.

B2: Gene 51: product of SPO1 host-takeover gene 51, SEQ ID NO: 15 (protein)
chain: MAKINKGYVANFIEENGFPEQGHFEEKKDLQAFYKHLSTEQLEEWVELEGLEVKDTDSDSIYRMRLCMAILYLNFPKKTAGKKKASPYKHISLEELVQMATDNDIEVKHTDSDKILRMRTIMALKEAGKLG
modifications: SPO1 Bacteriophage
For the molecule B2, the “Lethality, E. coli” value in assay [1] (listed as 51) is on record as “Lethal”. Moreover, the “Lethality, B. subtilis” value in assay [2] (listed as 51) is on record as “Lethal”. In assay [4], the “effect of expression on bacterial DNA, RNA and protein synthesis” value is “inhibiting DNA, RNA, and protein synthesis”.

B3: Gene 56: product of SPO1 host-takeover gene 56, SEQ ID NO: 20 (protein)
chain: MFKYTDRSVRQYIERQQRSAMLEQEQAEKDKKERRKAGLLFFGTIVVLVAVVAVYIVPQSLDAMWHENYEKPAQEAARN
modifications: SPO1 Bacteriophage
With B3, in assay [1], the “Lethality, E. coli” value is recorded as “Mildly toxic”. Moreover, the “Lethality, B. subtilis” value in assay [2] (listed as 56) was “Lethal”. Moreover, in assay [6], the “effect on cell division” value was “specifically inhibiting cell division, without affecting DNA synthesis or chromosomal segregation”. The “toxicity or lethality of expression” value in assay [7] is recorded as “lethal effect”.
